These results are taken from the supplement of paper PMC10567573.

B1: DVL3 (parent)
chain: SDVVDWLYHNVEGFTDRREARKYA
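Note: lentivirally expressed fusions sorted by FACS into six bins by GFP to DsRed ratio, PSI derived from sequencing read proportions per bin multiplied by bin number.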

Variants of B1 are the subject of the data set. Kind of data set: protein stability index of a GFP-peptide fusion (GPS, HEK-293T) (PSI 1-6); higher = more stable. The conditions noted are these: c terminus: a fixed tail appended.
On to SDVVDWLYHNYEGFTDRREARKYA, for which the protein stability index was determined as 3.48.

On to SDVVDWLYHNLEGFTDRREARKYA, for which the protein stability index amounted to 2.03.

As for SDVVDWLYHNNEGFTDRREARKYA, the protein stability index was determined as 3.83.

Consider SDVVDWLYHNTEGFTDRREARKYA, for which the protein stability index amounted to 2.67.

For the variant SDVVDWLYHNCEGFTDRREARKYA, the protein stability index came out at 3.07.

In the case of SDVVDWLYHNKEGFTDRREARKYA, the protein stability index stood at 3.85.

Turning to SDVVDWLYHNMEGFTDRREARKYA, the protein stability index stood at 2.58.

For the variant SDVVDWLYHNHEGFTDRREARKYA, the protein stability index came to 3.6.

Turning to SDVVDWLYHNSEGFTDRREARKYA, the protein stability index amounted to 2.45.

As to SDVVDWLYHNDEGFTDRREARKYA, the protein stability index is 3.62.

With SDVVDWLYHNPEGFTDRREARKYA, the protein stability index stood at 4.08.

As to SDVVDWLYHNEEGFTDRREARKYA, the protein stability index worked out at 3.53.

As for SDVVDWLYHNIEGFTDRREARKYA, the protein stability index turned out to be 2.61.

With SDVVDWLYHNGEGFTDRREARKYA, the protein stability index is 4.04.

Consider SDVVDWLYHNFEGFTDRREARKYA, for which the protein stability index was 2.46.

Consider SDVVDWLYHNQEGFTDRREARKYA, for which the protein stability index was 3.36.

With SDVVDWLYHNWEGFTDRREARKYA, the protein stability index was 2.36.

With SDVVDWLYHNREGFTDRREARKYA, the protein stability index worked out at 3.1.

With SDVVDWLYHNAEGFTDRREARKYA, the protein stability index was found to be 2.8.

As to SDVVDWLYHNVEGFNDRREARKYA, the protein stability index stood at 3.13.

Turning to SDVVDWLYHNVEGFWDRREARKYA, the protein stability index came to 2.74.

Turning to SDVVDWLYHNVEGFYDRREARKYA, the protein stability index is 3.24.

Turning to SDVVDWLYHNVEGFGDRREARKYA, the protein stability index amounted to 2.7.

Consider SDVVDWLYHNVEGFVDRREARKYA, for which the protein stability index worked out at 2.85.

As for SDVVDWLYHNVEGFHDRREARKYA, the protein stability index was 3.23.

Regarding SDVVDWLYHNVEGFIDRREARKYA, the protein stability index was found to be 2.83.

As for SDVVDWLYHNVEGFADRREARKYA, the protein stability index is 2.32.

As to SDVVDWLYHNVEGFMDRREARKYA, the protein stability index turned out to be 3.02.

As to SDVVDWLYHNVEGFCDRREARKYA, the protein stability index turned out to be 2.67.

As for SDVVDWLYHNVEGFKDRREARKYA, the protein stability index is 2.56.

Take SDVVDWLYHNVEGFPDRREARKYA: the protein stability index was found to be 2.92.

For the variant SDVVDWLYHNVEGFQDRREARKYA, the protein stability index worked out at 3.21.

Consider SDVVDWLYHNVEGFFDRREARKYA, for which the protein stability index is 2.15.

Regarding SDVVDWLYHNVEGFDDRREARKYA, the protein stability index was 3.04.

Take SDVVDWLYHNVEGFLDRREARKYA: the protein stability index amounted to 2.91.

For SDVVDWLYHNVEGFRDRREARKYA, the protein stability index worked out at 2.91.

Turning to SDVVDWLYHNVEGFTMRREARKYA, the protein stability index was 2.29.

SDVVDWLYHNVEGFTIRREARKYA: the protein stability index is 3.24.

Turning to SDVVDWLYHNVEGFTARREARKYA, the protein stability index is 2.45.

For SDVVDWLYHNVEGFTWRREARKYA, the protein stability index turned out to be 2.12.

On to SDVVDWLYHNVEGFTERREARKYA, for which the protein stability index turned out to be 3.

In the case of SDVVDWLYHNVEGFTRRREARKYA, the protein stability index was determined as 2.21.

With SDVVDWLYHNVEGFTKRREARKYA, the protein stability index turned out to be 2.29.

Consider SDVVDWLYHNVEGFTHRREARKYA, for which the protein stability index came out at 2.37.

On to SDVVDWLYHNVEGFTCRREARKYA, for which the protein stability index turned out to be 1.92.

In the case of SDVVDWLYHNVEGFTTRREARKYA, the protein stability index came out at 2.66.

Consider SDVVDWLYHNVEGFTPRREARKYA, for which the protein stability index came to 3.74.

As for SDVVDWLYHNVEGFTVRREARKYA, the protein stability index amounted to 2.24.

Take SDVVDWLYHNVEGFTFRREARKYA: the protein stability index was determined as 2.94.

As to SDVVDWLYHNVEGFTYRREARKYA, the protein stability index was 2.06.

SDVVDWLYHNVEGFTLRREARKYA: the protein stability index is 2.07.

With SDVVDWLYHNVEGFTQRREARKYA, the protein stability index is 3.19.

In the case of SDVVDWLYHNVEGFTDAREARKYA, the protein stability index came out at 2.81.

SDVVDWLYHNVEGFTDCREARKYA: the protein stability index amounted to 3.43.

As to SDVVDWLYHNVEGFTDDREARKYA, the protein stability index was found to be 3.56.

SDVVDWLYHNVEGFTDMREARKYA: the protein stability index is 2.63.

SDVVDWLYHNVEGFTDHREARKYA: the protein stability index came out at 4.21.

Turning to SDVVDWLYHNVEGFTDIREARKYA, the protein stability index stood at 1.82.

Regarding SDVVDWLYHNVEGFTDPREARKYA, the protein stability index came to 3.33.

As for SDVVDWLYHNVEGFTDKREARKYA, the protein stability index worked out at 3.7.

For SDVVDWLYHNVEGFTDWREARKYA, the protein stability index came out at 2.

For SDVVDWLYHNVEGFTDEREARKYA, the protein stability index came to 3.82.

Take SDVVDWLYHNVEGFTDFREARKYA: the protein stability index stood at 2.16.

With SDVVDWLYHNVEGFTDTREARKYA, the protein stability index was 3.09.

Consider SDVVDWLYHNVEGFTDVREARKYA, for which the protein stability index was determined as 2.37.

As for SDVVDWLYHNVEGFTDYREARKYA, the protein stability index was 2.45.

In the case of SDVVDWLYHNVEGFTDSREARKYA, the protein stability index amounted to 3.9.

SDVVDWLYHNVEGFTDNREARKYA: the protein stability index is 2.65.

In the case of SDVVDWLYHNVEGFTDLREARKYA, the protein stability index was 2.69.

SDVVDWLYHNVEGFTDQREARKYA: the protein stability index is 3.67.

As for SDVVDWLYHNVEGFTDRKEARKYA, the protein stability index was 2.97.

Regarding SDVVDWLYHNVEGFTDRLEARKYA, the protein stability index was found to be 2.04.

With SDVVDWLYHNVEGFTDREEARKYA, the protein stability index was 3.84.

For the variant SDVVDWLYHNVEGFTDRHEARKYA, the protein stability index amounted to 3.41.

In the case of SDVVDWLYHNVEGFTDRFEARKYA, the protein stability index stood at 2.35.

Consider SDVVDWLYHNVEGFTDRGEARKYA, for which the protein stability index came out at 2.38.

Turning to SDVVDWLYHNVEGFTDRNEARKYA, the protein stability index is 3.55.

For SDVVDWLYHNVEGFTDRVEARKYA, the protein stability index was found to be 3.53.

With SDVVDWLYHNVEGFTDRQEARKYA, the protein stability index came out at 2.94.

In the case of SDVVDWLYHNVEGFTDRPEARKYA, the protein stability index stood at 3.03.

SDVVDWLYHNVEGFTDRDEARKYA: the protein stability index was found to be 3.99.

In the case of SDVVDWLYHNVEGFTDRWEARKYA, the protein stability index was 1.55.

As to SDVVDWLYHNVEGFTDRYEARKYA, the protein stability index is 2.19.

Take SDVVDWLYHNVEGFTDRAEARKYA: the protein stability index stood at 3.19.

Take SDVVDWLYHNVEGFTDRTEARKYA: the protein stability index was determined as 3.59.

As to SDVVDWLYHNVEGFTDRSEARKYA, the protein stability index is 3.43.

Consider SDVVDWLYHNVEGFTDRMEARKYA, for which the protein stability index was found to be 2.4.

Consider SDVVDWLYHNVEGFTDRIEARKYA, for which the protein stability index was determined as 2.42.

Turning to SDVVDWLYHNVEGFTDRCEARKYA, the protein stability index was found to be 2.52.

On to SDVVDWLYHWVEGFTDRREARKYA, for which the protein stability index amounted to 2.63.

In the case of SDVVDWLYHSVEGFTDRREARKYA, the protein stability index came out at 3.01.

Consider SDVVDWLYHVVEGFTDRREARKYA, for which the protein stability index came out at 2.58.

For SDVVDWLYHYVEGFTDRREARKYA, the protein stability index was 2.01.

In the case of SDVVDWLYHTVEGFTDRREARKYA, the protein stability index came out at 3.33.
